{"source": "patent US20180009908", "proteins": {"B1": {"name": "MetMAb HC_7.8.60_B + MetMAb LC (IgG1) (protein)", "chain 1": "EVQLVESGGGLVQPGGSLRLSCAASGYTFTSYWLHWVRKAPGKGLEWVGMIDPSNSDTRFNPEFKDRFTISADTSKNTAYLQMNSLRAEDTAVYYCATYRSYVTPLDYWGQGTLVTVSSASTKGPSVFPLAPSSKSTSGGTAALGCLVKDYFPEPVTVSWNSGALTSGVATGPAVLQSSGLYSLSSVVTVPSSSLGTQTYICNVNHKPSNTKVDKKVEPKSCDKTHTCPPCPAPELLGGPSVFLFPPKPKDTLMISRTPEVTCVVVDVSHEDPEVKFNWYVDGVEVHNAKTKPREEQYQSTYRVVSVLTVLHQDWLNGKEYKCKVSNKALPAPIEKTISKAKGQPRRPRVYTLPPSREEMTKNQVSLVCLVKGFYPSDIAVEWESNGQPENNYKTTPPVLDSDGSFFLYSVLTVDKSRWQQGNVFSCSVMHEALHNHYTQKSLSLSPGK", "chain 2": "RIQMTQSPSSLSASVGDRVTITCKSSQSLLYTSSQKNYLAWYQDKPGKAPKLLIYWASTRESGVPSRFSGSGSGTDFTLTISSLQPEDFATYYCQQYYAYPWTFGQGTKVEIKGQPKAAPSVTLFPPSSEELQANKATLVCYISDFYPGAVTVAWKADSSPVKAGVETTTPSKQSNNKYAAWSYLSLTPEQWKSHRSYSCQVTHEGSTVEKTVAPTEC"}}, "key": {"[1]": {"target": "matuzumab HC_7.8.60_A + matuzumab LC (IgG1)", "experiment": "LCMS, IgG1 BsAb co-expression in HEK293F"}, "[2]": {"experiment": "LCMS, IgG1 BsAb co-expression; HCA (MetMAb) homodimer species"}, "[3]": {"target": "matuzumab HC_7.8.60_A + matuzumab LC (IgG1)", "experiment": "LCMS, IgG1 BsAb co-expression; HCA/HCB heterodimer carrying two LC1"}, "[4]": {"target": "matuzumab HC_7.8.60_A + matuzumab LC (IgG1)", "experiment": "LCMS, IgG1 BsAb co-expression; HCA/HCB heterodimer carrying two LC2"}}}
{"protein": "B1", "values": [{"measurement": "% AB (LC1/LC2) (correct IgG BsAb assembly)", "setting": "[1]", "value": 90.8, "unit": "%"}, {"measurement": "% AA Homodimer (incorrect assembly)", "setting": "[2]", "value": 0, "unit": "%"}, {"measurement": "% AB (2x LC1) (incorrect assembly)", "setting": "[3]", "value": 9.2, "unit": "%"}, {"measurement": "% AB (2x LC2) (incorrect assembly)", "setting": "[4]", "value": 0, "unit": "%"}]}
